Consider one substance from PMC6981215.

The test addresses Momordica charantia 7S globulin (Momordica charantia). The experiment in a line: SEC; HiLoad 16/60 Superdex 200 pg, 50 mM Tris pH 7.4 with 150 mM NaCl, 0.5 ml/min; peak at ~69.2 ml, mass estimated from a calibration with high molecular weight standards.

In general, stoichiometry N refers to the number of molecules, sites or subunits per partner or assembly.

In the case of “Momordica charantia 7S globulin (natural protein)”, the stoichiometry N was 3.
